# Test results taken from the DeepSol protein solubility set.
# Assay: soluble on expression in E. coli; label from the status in PepcDB or PDB records
row,Sequence,soluble on expression in E. coli
1,LQMTQSPSFLSASVGDRVSITCRASQDIQKFLAWYQLTPGDAPKLLMYSASTLQSGVPSRFSGSGSGTEFTLTISGLQPEDFATYYCQHLKRYPYTFGQGTKLEISRTVAAPSVFIFPPSDEQLKSGTASVVCLLNNFYPREAKVQWKVDNALQSGNSQESVTEQDNKDSTYSLSSTLTLSKADYEKHKVYACEVTHQGLSSPVTKSFNRGEC,soluble
2,LRDFNYSIAGNLTWARNKVIDLLEPAGEKNNPRQRSTGHSMSQYFGYEALGLFQSDEEANNWPQPQFGKAKAGDIKYKDQNGDGIIDAEDEIAIGRSNYPELVYGLNLNAEWKGFDITFFFQGAALADFYYNGYLAFPYIEGRGGALLEHHIGNTWTPENPKAEFPRLYYGGNANNQLFSSFWMRNGSYLRLKNVEIGYDFKKLLLSKVSEIQGLRLYFSGSNLLTWSQIKYFDPELRSTDGSAYPQMKTFVFGANITF,not soluble
3,LSAQEIIQYISDAKKSTPLKVYVNGHFENVTFPESFKVFGSEHSKVIFCEANEWKQFYQQNHSLITELEIEMDRRNSAIPLKDLTNTN,soluble
4,LSDKLMERLKERAEGIFVSGPPGSGKSTFVAALAEFYRSQGKIVKTMESPRDLQVSKEITQYAPLEGDMEKTCDILLLVRPDYTIYDEVRKTRDFEIFADMRMAGVGMVGVVHASKPIDAIQRLIGRVELGVIPQVVDTVIFIKDGKIQKVYEIDFTVKVPYG,not soluble
5,LYAPLVSLMITVPVFGQHEYTHALVADLEREGADYLIVDNRGDYPRIGTERVSTPGENLGWAGGSELGFRLAFAEGYSHAMTLNNDTRVSKGFVAALLDSRLPADAGMVGPMFDVGFPFAVADEKPDAESYVPRARYRKVPAVEGTALVMSRDCWDAVGGMDLSTFGRYGWGLDLDLALRARKSGYGLYTTEMAYINHFGRKTANTHFGGHRYHWGASAAMIRGLRRTHGWPAAMGILREMGMAHHRKWHKSFPLTCPASC,not soluble
6,LYFQGMSLEPFGARLSRAMDDRGPLCVGIDPHASLLADWGLSDDVAGLERFSRTVVEALGEHVAVFKPQSAFFERFGSRGVAVLEKTVAEARAAGALVVMDAKRGDIGSTMAAYAEAFLRKDSPLFSDALTVSPYLGYGSLRPAVELARESGAGLFVLALTSNPEGGEVQHAVRTDGRDVAATMLAHLAAENAGEEPLGSFGAVVGATLGDLSSYDLDINGPLLAPGIGAQGAAPADLPGVFGAAVRNVVPNVSRGVLRHGPDVRALRTAADRFAEEIRAAVAA,soluble
7,LYGYYCMQEEEQLVYWYSGLYLQPQHFQSIDLHHGFMLARSRQLSQPHHQGYYECCINDDLLKEDTVRVEKIKAVLSSGYYIEYPGNCVVQDKCLTNLKGSDHGTVDLWLALKRFNSGHKNVSSVNDKRGSARWISSDDERNMRNVYHDSQDADITRIKYDIQILTDEEKDNTTDYEYLPLTRIIYGNNSLCIDDECSFPVMRLSANHKLRNKIAEIYSDIKFYKNRLEKYRYTERTVSDGHLYNFLILCAINRTLPLLSSFINEDAIHPWLYYMALCQFAGEISTFHNSGLSDTRIVELSYNHYEQISCFSDLQYYIKLILDDSCRDKIISVEFRKITTDTLICNFDEYGAGSNSDYYIKLTSDTFRKNKLIALPEIKIAPSEHIDMIIQHALPGIKFTVMDAVTSDLQVRENTIWLKIDKHSELWTLAQTQKRVAFYWSCSPDDLLVELVLSQEKYAVSRPKQDNGSFHPAVGR,not soluble
8,MAAAKRKLVFDSPNESSVNFETSPNFPKEWKIDGMDIENRIRNFRDELQAQGLCPVGSAGIDPKSKFRTEYRRIVNANTILTDVLRLQQKEGEWLKNASGLLEYDIQSLHARRDHLDNAVEQLKSQLSRLDSSVAILKSQQMAVKSVLELREDEYLADDADSNLPDEFLKFSKISKLCAASLQSYENVKKRNEEMQKELIAERNRQRKLHDATMKMMEEKERVRVEQLEDLFKDFSLEQLTRLRDRIRQAQK,not soluble
9,MAAATTTASAFKWPWQYDFPPFFTIQKSLNTKDKQLEAWARLVIDYAQHNKIYSLDIAEATTSELFNNQKLNRRLSTDGVNTVLQYLEQKKLIEFTDNGRTRFHIFWRRPDVWANMIYQWAVENAFINTPLTLYEITHGDDTTNESFHNLEREILMKALTCLEEQRRAQLMNIGGDNEGVKFI,soluble
10,MAAEGDFLMRYRAVSNKLKKRFLRKPNVAEASEQFGQLAKELKQQDCPQYAAFCNLAMARCEQTLFNAPGEALALTDAARLFLASEQETRALRAPGFDENMQAAMNCYSFAIKVYIEMNQPVMAARLSLELGNALKEMNRPGEAIIHFQRAAELQIQMPIEALLSLWEMASCKILTRDYDGALAVLSEMQHMCQERGLQLPGTNTPVGAFMDIIAKCEISRVLLLMLLEPPPQKLLPEHAQTLERYAWESFDSHSQMACQEKDTESLKALQTELW,not soluble
11,MAAEGKAIAKVNDLVIFVPYVVPGDVVDLQIKRKKNKYAEAEAVKFHELSPVRAVPFCQHYGVCGGCKWQVLPYSEQIRYKQKQVEDNLRRIGKIELPEISPILGSAKTEFYRNKLEFTFSNKRWLTNDEVRQDVKYDQMNAVGFHIPGAFDKVLAIEKCWLQDDISNRIRNAVRDYAYEHDYSFINLRTQEGMLRNLIIRTSSTGELMVIVICKITEDHEMELFKQLLQFIADSFPEITSLLYIINNKCNDTINDLDVHVFKGKDHMFEEMEGLRFKVGPKSFYQTNSEQAYNLYKIAREFAGLTGKELVYDLYTGTGTIANFVSRQARQVIGIEYVPEAIEDAKVNAEINEIKNALFYAGDMKDMLTQEFINQHGRPDVIITDPPRAGMHQDVVDVILFAEPKRIVYVSCNPATQARDLQLLDGKYKVKAVQPVDMFPHTHHVENVVLLELR,not soluble
12,MAAFEYKALDAKGKQKKGTIEGDNARQVRQRLKEQGMIPVEVVEAKAKAAKSSGSVGFKRGIKTAELALITRQLSTLVQSGMPLEECLRAVSEQAEKPRIRTMIAAVRSKVTEGYPLADSLGDYPHVFDELFRSMVAAGEKSGHLDTVLERLAEYVENRQKMRSKLLQA,not soluble
13,MAAQSDRYDAVLVQYGLRPVRMEQRGKAVKVYTNRGVFALKPLESEQEAAAVWQSLQHGGPRCLPLYLTRRRSLFATEGGRLYYLQAWHDGESKVEKDAADAFFRELARLHRATVRTIEVSEEEAAAYRKQKKDEWQRARTVWEERIERYEAAWYMSPFQLQCCTYFHEVMRAYSFAEERLDVWEETLKETKQWRIAWVHGKARLSHYIPPYWISWERAHWNSPLFDVIAALRFHVQTMPPLGREWLEGMEEYEKELPLSDGERAFLYSHLAEPRGFVRCLERYEAASRNERNEREYVAALQRRYLAFKNMEALVMHLVQRDAARQQEEAVDNEPPSDESSNG,not soluble
14,MAARTALGAVCRRLWQGLGNFSVNTSKGNTAKNGGLLLSTNMKWVQFSNLHVDVPKDLTKPVVTISDEPDILYKRLSVLVKGHDKAVLDSYEYFAVLAAKELGISIKA,not soluble
15,MAASASGKSKTSAGANRRRNRPSPRQRLLDSATNLFTTEGIRVIGIDRILREADVAKASLYSLFGSKDALVIAYLENLDQLWREAWRERTVGMKDPEDKIIAFFDQCIEEEPEKDFRGSHFQNAASEYPRPETDSEKGIVAAVLEHREWCHKTLTDLLTEKNGYPGTTQANQLLVFLDGGLAGSRLVHNISPLETARDLARQLLSAPPADYSI,soluble
16,MAATVRNLPALFRGLHSKEVCQKMSFSVSAAAKSEILVDTHGSKKVVTLNRPKALNALNLEMVREFYPKLQAWNSSSDVDLVILKGSGDKAFCAGGDVLAVVRSFKDSESGKECTMHKDFFREEYILNHLIGTLNKQYVCLIDGIVMGGGCGLSVNGRFRVATEKTMLAMPETALGLFPDVGGSYFLSRLKGNLGMYLALTGYRLLGADAFHAGLATHFVESSELAKLEKELVNIKDVTENSVDEVIRSFEPKKIPEFSLSKNLAQIRDSFKAKSVEEILASLEKDGSDWAKKQAATLGKMSPTSLKVTHRQITEGSKMSYAKIFTMEYRLTQRFLADKDFHEGCRAILVDKDRKPKWNPATLADVKDSVVDNYFSPLPNNSDLKL,not soluble
17,MAAWKSWTALRLCATVVVLDMVVCKGFVEDLDESFKENRNDDIWLVDFYAPWCGHCKKLESIWNEVGLEMKSIGSPVKVGKMDATSYSSIASEFGVRGYPTIKLLKGDLAYNYRGPRTKDDIIEFAHRVSGALIRPLPSQQMFEHMQKRHRVFFVYVGGESPLKEKYIDAASELIVYTYFFSASEEVVPEVIFKI,soluble
18,MADAAEGEQPKLSKKELNKLARKAKKDEKAGEKGGNQQQAAAMDQEDASKDFYGSYGLVNSKEKKVLNFLKVKEINVSNATKDVWVRGRIHTTRSKGKNCFLVLRQGVYTVQVAMFMNEKISKQMLKFVSSISKESIVDVYATINKVDNPIESCTQKDVELLAQQVFVVSTSAPKLPLQIEDASRRAPTDEEKASEQENQLAVVNLDTRLDNRVIDLRTPTSHAIFRIQAGICNQFRNILDVRGFVEIMAPKIISAPSEGGANVFEVSYFKGSAYLAQSPQLYKQMAIAGDFEKVYTIGPVFRAEDSNTHRHMTEFVGLDLEMAFNFHYHEVMETIAEVLTQMFKGLQQNYQDEIAAVGNQYPAEPFQFCEPPLILKYPDAITLLRENGIEIGDEDDLSTPVEKFLGKLVKEKYSTDFYVLDKFPLSVRPFYTMPDAHDERYSNSYDMFMRGEEILSGAQRIHDADMLVERAKHHQVDLAKIQSYIDSFKYGCPPHAGGGIGLERVTMLFLGLHNIRLASLFPRDPKRLTP,not soluble
19,MADAAKNALSSIFDKTKDVLSTAADATKGYASQAQQAIGKIIPGANHESDPNAAVAAAQAASGQPVDTTGGVPPAQ,not soluble
20,MADDAGILYENSLDLLKSMKNFAGNVGEGEKKHPYGKAANAARAYGSGMKNSAASFNHSGEQFDKLFEACNTFKDQINGNVLAKLISFKDVECKDVDTQMTQLKKAQKDYANKKSKIVPDQVQVDAAEATLKKLLEEAKATLEKFNKTGCELLTQISADMKTGFDAYCDAAASIN,not soluble
21,MADDLNAGPKANREFKNSVFTLLFNEEEAIRDISGAVGAMLGKEISPNTPIKKTTLQNALLGGKLNDLSFVLDDKLIVLIEHQSTINKNMPLRMLHYICEIYNHLYEKKDLYRKKKILIPKPVFIVLYNGEEDIKDFEEYLLSDLFKDFDISKEQPYLELRVQVRNINKGHSAEIVKQSPLLLDYVAFVEEVREVNKEEGMTPELAMEKAIENCIKKGILTVFLTRHKEEVMKMLVAEWDYDLDREVARDEGREEGREEGRTEETANNIKDLYRIGVSIETIAKAFGLSEHDVKDILGL,soluble
22,MADEATRRVVSEIPVLKTNAGPRDRELWVQRLKEEYQSLIRYVENNKNADNDWFRLESNKEGTRWFGKCWYIHDLLKYEFDIEFDIPITYPTTAPEIAVPELDGKTAKMYRGGKICLTDHFKPLWARNVPKFGLAHLMALGLGPWLAVEIPDLIQKGVIQHKEKCNQLEHHHHHH,soluble
23,MADEIFKAFIGGLPYDSIATDIETILKHCKFTDEELKKFDIHLVHDRDSGSFKGFAYVTFENEQQMNTAISGLNGADFGNRVLKVNRAQQRDRSDRGGGRGGRGGNFGDRGGRGRGAGGFRRGGEGGRFNEGERRGGFGGGGHRGGYRQRRESEEQHKAEETSDPSAPPAERPRLNLKPRTTDAAEIEARKKQEEEETKRRQEKLFQ,not soluble
24,MADESYDALSRGNKSNLRNEVVDMKKKPFSILFMGIEDYATKGQKGRSDSLIVVTLDPKNKTMKMLSIPRDTRVQLAGDTTGSKTKINAAYSKGGKDETVETVENFLQIPIDKYVTVDFDGFKDVINEVGGIDVDVPFDFDEKSDVDESKRIYFKKGEMHLNGEEALAYARMRKQDKRGDFGRNDRQKQILNALIDRMSSASNIAKIDKIAEKASENVETNIRITEGLALQQIYSGFTSKKIDTLSITGSDLYLGPNNTYYFEPDATNLEKVRKTLQEHLDYTPLEHHHHHH,soluble
